Measured values published in patent publication US5707800, “Retinoic acid response elements and assays employing same” (The Salk Institute for Biological Studies).

B1: CRBPII-RXRE (dsDNA)
DNA 1: GCTGTCACAGGTCACAGGTCACAGGTCACAGTTCA
DNA 2: TGAACTGTGACCTGTGACCTGTGACCTGTGACAGC

How the values were obtained:
[1] = test system: RAR (subtype not stated); assay: cell_activity; conditions: CV-1 cells; RAR blocks RXR transactivation at equal expression vector amount; no RA activation by RAR itself
[2] = biological target: RXR alpha (retinoid X receptor alpha) (Homo sapiens, UniProt P19793 P19793:1-462); assay: cell_activity; CAT induction by retinoic acid in F9 cells, CRBPII promoter reporter pCRBPII-CAT; conditions: tags: expression plasmid; chain copies: 4; label: 32P
Procedure: Chem. 262:2425–2467 (1987)], was introduced into a plasmid which would regulate expression of the reporter, bacterial chloramphenicol acetyl transferase (see FIG. 1). The resultant reporter plasmid, pCRBPII-CAT, was tested for retinoic acid (RA) responsiveness after transfection into mouse embryonal teratocarcinoma F9 cells. F9 cells endogenously express high amounts of retinoic acid receptor (RAR), and can efficiently transactivate (>100-fold) a reporter plasmid containing the well characterized RA-inducible promoter of the RARβ gene [see de The et al., in Nature 343:177–180 (1990) and Sucov, et al., in Proc. Natl. Acad. Sci. U.S.A. 87:5392–5396 (1990)]. However, pCRBPII-CAT conferred no basal or RA-inducible CAT activity in these cells. To eliminate the possibility that regulation of the CRBPII promoter requires an augmented concentration of RAR, as is the case for the laminin retinoic acid response element [RARE; see Vasias, et al., in Proc. Natl Acad. Sci. U.S.A. 86:9099–9103 (1989], or that its regulation is isoform specific, expression vectors bearing all three subtypes of RAR were each separately cotransfected with pCRBPII-CAT into F9 cells.
To assess the exact sequences within the CRBPII promoter that function as an RXR response element (RXRE), a series of 5'-deletion mutants were constructed starting with the parent reporter plasmid pCRBPII-CAT (see FIG. 2). […]

Chain of RXR alpha (retinoid X receptor alpha) (P19793 whole entry, one chain of several): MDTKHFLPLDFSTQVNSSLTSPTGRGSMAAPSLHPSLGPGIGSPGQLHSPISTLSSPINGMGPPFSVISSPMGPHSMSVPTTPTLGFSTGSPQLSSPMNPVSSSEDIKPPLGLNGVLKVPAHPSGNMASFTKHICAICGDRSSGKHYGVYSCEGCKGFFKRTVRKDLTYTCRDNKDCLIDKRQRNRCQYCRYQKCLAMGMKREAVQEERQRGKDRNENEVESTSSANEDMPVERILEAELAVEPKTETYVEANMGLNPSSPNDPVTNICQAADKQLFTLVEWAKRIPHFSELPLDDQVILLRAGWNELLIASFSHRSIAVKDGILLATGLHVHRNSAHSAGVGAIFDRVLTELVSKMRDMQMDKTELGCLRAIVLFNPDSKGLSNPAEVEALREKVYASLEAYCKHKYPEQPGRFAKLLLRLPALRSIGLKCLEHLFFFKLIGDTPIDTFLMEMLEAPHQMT

Molecule	activity (% suppression of RXR activation) [1]	activity [2] [fold]
GCTGTCACAGGTCACAGGTCACAGGTCACAGTTCA (double strand) [CRBPII-RXRE]	90	
B1		100
